Measured values taken from patent US20230135471A1, “UBIQUITIN VARIANTS WITH IMPROVED AFFINITY FOR 53BP1” (Integrated DNA Technologies, Inc., priority 2021, published 2023).

Columns and labels:
[1] = tested on: HDR at a Cas9 cut site in MET in HEK293 cells; assay: HDR (6 nt insert) at MET measured by EcoR1 cleavage; type: cell-based; conditions: Alt-R HDR donor oligo (small insert), CM1 […], IDT-E 1 μM for 24 hours
Description: (§1) We tested if our ubiquitin variants provided a further benefit over inhibition of common NHEJ pathway targets alone by using the DNA-PK inhibitor IDT enhancer (IDT-E) in combination with CM1 in the context of both large and small inserts (Table 7). […] Without limiting the claimed subject matter to a particular mode or mechanism of action, we hypothesize that our ubiquitin variants targeting 53BP1 will be a useful in facilitating increased HIDR when used in combination with other inhibitors of NHEJ pathway components.

[2] = tested on: HDR at HPRT1 in HEK293 cells that constitutively express HiFi Cas9 / Jurkat cells; assay: HDR at HPRT1 by EcoR1 cleavage assay, Ubv delivered as expression plasmid; type: cell-based; conditions: 154 ng plasmid encoding His-tagged Ubv, versus LbCas12a crRNA plasmid negative control
Description: Error bars indicate the standard deviation from two replicates.
In order to test if CM1 is effective at increasing HDR rates when delivered in other forms, plasmid or mRNA encoding CM1 was introduced into cells and the effects on HDR rates were analyzed. […] After 72 hours, genomic DNA was extracted using QuickExtract (Lucigen) and editing was analyzed by PCR amplification of the HPRT1 target site followed by EcoR1 restriction enzyme digestion. Digested product was run on a Fragment Analyzer (AATI).

[3] = target: 53BP1 (amino acids 1484-1603) fused to MBP (Homo sapiens, UniProt Q12888); assay: Biolayer interferometry (BLI) of purified His-tagged Ubvs, 1:1 binding model global fit; conditions: for Response: second experiment, longer association (360 seconds; i53 90 seconds)
Sequence of 53BP1 (amino acids 1484-1603) fused to MBP (Q12888 1484-1603, looked up): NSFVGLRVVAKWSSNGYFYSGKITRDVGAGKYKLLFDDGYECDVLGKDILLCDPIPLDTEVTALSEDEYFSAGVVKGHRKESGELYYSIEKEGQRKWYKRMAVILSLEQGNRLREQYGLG
Description: In order to assess the effect of mutations identified from the two-hybrid screen on the affinity of the Ubvs for 53BP1, Ubvs consisting of the i53 sequence with an N-terminal His tag and short flexible linker plus individual or combinations of screen-identified mutations were purified from E. coli (Table 3). Biolayer interferometry was used to measure the affinity of the purified proteins. Briefly, a purified Ubv was diluted in reaction buffer (1×PBS pH7.4, 0.1 mg/mL BSA, 0.001% Tween 20) to 2 ug/mL. Purified 53BP1 (amino acids 1484-1603) fused to MBP was diluted in reaction buffer to between 20 μM and 10 nM (Table 3, Table 4)). For each Ubv, 8 Ni-NTA sensor tips were hydrated and then loaded with the 2 ug/ml of a Ubv for 30 seconds. Sensor tips were then incubated in reaction buffer for 45 seconds to obtain a baseline. Tips were then moved into either empty buffer or seven different concentrations of purified 53BP1 and the association was measured. Tips were then moved back into reaction buffer and the dissociation was measured. Kon, Koff, and Kd were calculated using a 1:1 binding model using a global fit (Table 4).
A second experiment was performed using CM1 and CM7 using a longer association time (360 seconds) to allow binding to closer approach equilibrium. The BLI response vs 53BP1 fragment concentration was plotted in prism to calculate the Kd using a one site-specific binding nonlinear fit model. An i53 response was plotted on the same graph however the association time used (90 seconds) was shorter due to needing a shorter time to reach equilibrium because of the fast off rate of i53 (FIG. 5B, FIG. 5C, Table 4).

[4] = tested on: HDR at a Cas9 cut site in CLTA in K562 cells; assay: HDR insertion of 729 bp GFP coding sequence at CLTA, measured by ONT sequencing; type: cell-based; conditions: dsDNA donor (large insert), Ubv 37.5 μM, IDT-E 1 μM for 24 hours
Description: FIG. 12A illustrates use of a ubiquitin variant with high affinity for 53BP1 provides an additional benefit to HDR over the use of a DNA-PK inhibitor alone. […] Ubiquitin variants were delivered alongside 2 μM Cas9 RNP at 37.5 μM final concentration. IDT-E was added to media post nucleofection for 24 hours at 1 μM final dose. Double stranded DNA donor with 200 bp homology arms was delivered at 1.5 μg per nucleofection.
as §1

[5] = tested on: 53BP1 foci; conditions: introduced into cells; cited from earlier work
[6] = tested on: HDR; conditions: plasmid delivery, adeno-associated virus mediated gene delivery, or delivery of mRNA; cited from earlier work
[7] = target: T1, fragment of 53BP1 (a.a. 1221-1718) (Homo sapiens, UniProt Q12888); assay: BACTH two-hybrid pooled screen in E. coli, FACS sorting of GFP positive cells and NGS enrichment of i53 amino acid changes; type: cell-based
T1 construct: a fragment of 53BP1 (a.a. 1221-1718); expressed in transfected cells; host or cells: E. coli DHM1
T1 sequence (Q12888 1221-1718): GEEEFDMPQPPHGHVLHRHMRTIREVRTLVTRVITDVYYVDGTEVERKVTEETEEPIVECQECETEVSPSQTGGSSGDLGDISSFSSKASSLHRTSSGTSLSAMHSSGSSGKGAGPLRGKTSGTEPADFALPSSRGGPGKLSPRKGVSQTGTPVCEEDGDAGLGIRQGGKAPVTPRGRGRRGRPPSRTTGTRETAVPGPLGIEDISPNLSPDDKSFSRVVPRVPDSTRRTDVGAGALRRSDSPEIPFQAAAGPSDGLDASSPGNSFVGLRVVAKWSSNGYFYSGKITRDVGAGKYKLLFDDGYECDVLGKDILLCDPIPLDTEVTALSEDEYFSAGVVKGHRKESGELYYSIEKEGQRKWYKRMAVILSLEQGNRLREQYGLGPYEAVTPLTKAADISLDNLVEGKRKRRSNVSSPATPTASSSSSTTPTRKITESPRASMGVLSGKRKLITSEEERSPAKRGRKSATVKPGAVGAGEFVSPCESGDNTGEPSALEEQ
Description: (§2) In order to identify mutations that improve the affinity of i53 for 53BP1, the bacterial adenylate cyclase two-hybrid system (BACTH system) was used to screen for interaction between the two proteins. This method makes use of a B. pertussis calmodulin-dependent adenylate cyclase toxin. The catalytic domain of the toxin can be separated into two fragments (T18 and T25) that are able to associate in the presence of calmodulin but have minimal activity in its absence. If bait and prey proteins fused to T18 and T25 interact, then the catalytic activity is restored and cAMP is produced. In E. coli, cAMP binds to catabolite activator protein (CAP) that acts as a transcriptional activator for several genes. By expressing these fusion proteins in an E. coli strain that lacks endogenous adenylate cyclase and naturally lacks calmodulin, cAMP regulated protein expression can be used as a readout of bait-prey interaction. We engineered the screen so that eGFP will be expressed under the control of a cAMP-regulated promoter. The coding sequence for a fragment of 53BP1 (a.a. 1221-1718) containing the i53 interacting regions and i53 were cloned into T18 and T25 adenylate cyclase expression plasmids such that fusion proteins of each would be expressed. If a Ubv interacts with 53BP1, the T18 and T25 fragments will be brought together, adenylate cyclase activity will be restored, cAMP will be produced, and some portion of the bacterial population will be GFP positive.
A plasmid library was made consisting of Ubv-adenylate cyclase fragment fusion protein plasmids that had on average a single codon within the i53 coding region exchanged for a random NNK codon. Plasmids were transformed into DHM1 cells that lack endogenous adenylate cyclase and contain the plasmid for expression of the 53BP1 fragment fused to one of the adenylate cyclase fragments. Expression of eGFP was used as a readout of bait-prey interaction using fluorescence activated cell sorting (FACS) to sort for GFP positive bacteria. Plasmid DNA was isolated from both the sorted GFP positive bacteria (Positive) and from the original pre-sort population (Input) and was sequenced using NGS. Counts were merged for mutations that result in the same amino acid change using Enrich2 [25]. Enrichment was calculated as enrichment=log 2((read count for an amino acid change in the positive population/read count for an amino acid change in the input)/(synonymous change read count in the positive population/synonymous change read count in the input)). […] For each experiment, DHM1 cells were transformed with the Ubv fusion protein plasmid library in two separate replicates using a gene pulser (Bio-Rad). The i53-adenylate cyclase fragment fusion protein (published i53 peptide, SEQ ID NO:2) plasmid was also introduced separately as a control to estimate selection pressure. Cells were then grown and sorted using FACS and GFP positive cells were collected. Two separate experiments were conducted on separate days using different levels of selection pressure resulting in a different percent GFP positive for the i53 population (i.e. for cells that express published i53 peptide (SEQ ID NO:2) fused to one of the adenylate cyclase fragments).
(§3) There was a high degree of correlation between the two experiments and between replicates (FIG. 2). From these screens, about 230 amino acid changes were identified for which the average enrichment was positive for at least one of the experiments (Table 1). […] To validate that the amino acid changes identified from the pooled screen are reproducible on an individual basis, 24 amino acid changes identified from this screen were introduced individually into the i53 fusion protein plasmid and tested by flow cytometry for their effect on the percent positive population relative to i53 (FIG. 3). There was a strong correlation between the enrichment measured from the pooled screen and the percent reporter positive cells when mutations were screened individually.

[8] = target: T1, fragment of 53BP1 (a.a. 1221-1718); assay: Individual two-hybrid screen of amino acid changes, percent GFP (reporter) positive cells by flow cytometry; type: cell-based
Description: as §2, §3

[9] = tested on: HDR at HPRT1 in HEK293 cells; assay: HDR at HPRT1 by EcoR1 cleavage assay, tag-free versus His-tagged CM1 protein; type: cell-based; conditions: HEK293, HPRT1, 50 μM to […] ubiquitin variant
Description: Data is shown for two biological replicates with lines connecting the means. The dashed line indicates the level of EcoR1 cleavage when no enhancer is used (n=3, standard deviation <2%).
A tag-free version of CM1 (CM1tf, SEQ ID NO:482) was compared with the His6-tagged version of CM1 (SEQ ID NO:241) for their ability to enhance HDR in HEK293 cells as has been described in previous examples. Briefly, 2 uM Cas9 RNP targeting a site in HPRT1 and 2 uM ssDNA donor containing 40 bp homology arms flanking a 6 bp EcoR1 cut site insert sequence were delivered into HEK293 cells with varying amounts of CM1tf (CM1tf, SEQ ID NO:482) or His-tagged CM1 (CM1; SEQ ID NO:241) using Lonza nucleofection. Genomic DNA was isolated after 48 hours, and editing was measured using an EcoR1 cleavage assay.

| Response ([3]; 53BP1 0.0102 μM) | Response ([3]; 53BP1 0.0511 μM) | Response ([3]; 53BP1 0.1022 μM) | Response ([3]; 53BP1 0.2045 μM) | Response ([3]; 53BP1 1.02 μM) | Response ([3]; 53BP1 5.11 μM) | Response ([3]; 53BP1 20.5 μM) | i53 percent positive ([7]; experiment one) | GFP positive population ([7]; high selection pressure experiment) | GFP positive population ([7]; low selection pressure experiment) | Percent GFP Positive Rep 1 ([8]; replicate 1, amino acid change in i53 fusion protein plasmid) | Percent GFP Positive Rep 2 ([8]; replicate 2) | Percent GFP Positive Rep 3 ([8]; replicate 3) | Substance | rate of HDR [1] | HDR rate [2] | rate of HDR [4] | formation of ionizing radiation induced 53BP1 foci [5] | rates of HDR [6] | ability to enhance HDR [9] | KD (M) ([3]; 1:1 binding model, global fit over all 53BP1 concentrations) |
| --- | --- | --- | --- | --- | --- | --- | --- | --- | --- | --- | --- | --- | --- | --- | --- | --- | --- | --- | --- | --- |
| 0.4913 | 1.3298 | 1.6825 | 2.0092 | 2.5002 | 2.738 | 2.9739 |  |  |  |  |  |  | CM1: i53 with K6R, T7M, T12M, T14E, K33H, A46Q, S65P, L67K, H68M; N-terminal His tag | increase rates of HDR | larger increase in HDR rate | increase rates of HDR |  |  |  |  |
| 0.0176 | 0.0537 | 0.104 | 0.1877 | 0.6247 | 1.2658 | 1.954 | approximately 30% | ~3% | ~17% | 9% | 7.6% | 11.8% | i53: published ubiquitin variant inhibitor of 53BP1 (Canny et al.); tested with N-terminal His tag and linker (SEQ ID NO:3) [reference compound] |  | increase in HDR rates |  | inhibited the formation ionizing radiation induced 53BP1 foci | improve the rates of HDR |  |  |
| 0.099 | 0.3578 | 0.5715 | 0.8611 | 1.5108 | 2.0067 | 2.4923 |  |  |  |  |  |  | CM7: i53 with K6R, K33H, A46Q, S65P; N-terminal His tag |  |  |  |  |  |  |  |
|  |  |  |  |  |  |  |  |  |  |  |  |  | CM1tf: tag-free version of CM1 |  |  |  |  |  | equivalent to that of His-tagged CM1 |  |
|  |  |  |  |  |  |  |  |  |  |  |  |  | i53 DM: 53BP1 binding deficient i53 variant with P69L, L70V [reference compound] |  |  |  |  |  |  | Response was too low to get a good fit to the data |
